Experimental data: patent US20190169289A1 (Scripps Research, published 2019)
Read-outs that look alike come from different tables or passages of the source. Ends that are not written are not given here.

T1: anti-GCN4 (52SR4 scFv) sCAR with IgG4m hinge
T1 construct: disulfide dimer by western blot; also called short-dimeric sCAR; IgG4m sCAR
T1 chain: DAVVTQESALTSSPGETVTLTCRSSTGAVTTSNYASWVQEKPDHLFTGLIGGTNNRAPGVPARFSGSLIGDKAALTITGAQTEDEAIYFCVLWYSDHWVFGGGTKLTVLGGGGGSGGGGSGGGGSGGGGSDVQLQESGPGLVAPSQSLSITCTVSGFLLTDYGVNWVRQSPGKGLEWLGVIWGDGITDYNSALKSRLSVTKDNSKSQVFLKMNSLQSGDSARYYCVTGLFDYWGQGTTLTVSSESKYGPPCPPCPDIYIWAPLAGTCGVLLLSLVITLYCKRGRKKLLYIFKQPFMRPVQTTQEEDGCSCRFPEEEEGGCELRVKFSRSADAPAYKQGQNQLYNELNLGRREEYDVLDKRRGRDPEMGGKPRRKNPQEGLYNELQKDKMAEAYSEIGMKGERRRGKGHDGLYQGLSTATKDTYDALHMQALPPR


Key:
[1] = biological target: T2, CD22 (UniProt P20273 20-847, limits assumed); experiment: cell-based or functional assay
[2] = biological target: T2, CD22; experiment: cell-based or functional assay; remark: listed apart in the source
[3] = biological target: T2, CD22; experiment: cell-based or functional assay; remark: listed apart in the source
[4] = biological target: T2, CD22; experiment: cell-based or functional assay; remark: listed apart in the source
[5] = biological target: T2, CD22; experiment: cell-based or functional assay; remark: listed apart in the source
[6] = biological target: T2, CD22; experiment: cell-based or functional assay; remark: listed apart in the source
[7] = biological target: T3, anti-GCN4 (52SR4 scFv) sCAR with CD8 hinge; experiment: flow cytometry on CD8 sCAR-T cells, switch 30 min at 4 C, detected with PE-conjugated goat anti-human kappa chain antibody, MFI
T3 construct: 273 is the protein without leader; also called sCAR (long); CD8 sCAR
Description: Cells were washed two times and analyzed using the Accuri flow cytometer (BD).

[8] = biological target: T3, anti-GCN4 (52SR4 scFv) sCAR with CD8 …; experiment: flow cytometry of CD8 sCAR T cells stained with AF488-conjugated PNE; filled histogram against a dashed control histogram
[9] = biological target: T1, anti-GCN4 (52SR4 scFv) sCAR with IgG4m …; experiment: flow cytometry competition on CAR-T cells with the GCN4 CAR (SEQ ID NO. 74): 1 nM labelled GCN4 peptide (GCN4-AF488) as competitor, unlabelled peptide titrated, MFI of the labelled peptide read
Description: Un-labelled peptide binding efficiency was indirectly shown by measuring the mean fluorescence intensity (MFI) staining with the labelled peptide.
Cells were then washed twice with cold PBS to remove the free labelled peptide before being analyzed using the BD Accuri flow cytometer.

Binder | cytotoxicity at 0.01 pM [3] | cytotoxicity at 0.1 pM [3] | cytotoxicity at 10 pM [3] | cytotoxicity at 100 pM [3] | cytotoxicity at 1000 pM [3] | cytotoxicity at 10000 pM [3] | EC50 of cytotoxicity [4] | EC50 of cytotoxicity [5] | cytotoxicity at 0.06 pM [6] | cytotoxicity at 0.30 pM [6] | cytotoxicity at 1.52 pM [6] | cytotoxicity at 7.62 pM [6] | cytotoxicity at 38.10 pM [6] | cytotoxicity at 952.40 pM [6] | cytotoxicity at 4762.00 pM [6] | cytotoxicity at 190.48 pM [6] | further results
anti-CD22 (clone hLL2) Fab CTBV switch (Fab) light: DIQLTQSPSSLSASVGDRVTMSCKSSQSVLYSANHKNYLAWYQQKPGKAPKLLIYWASTRESGVPSRFSGSGSGTDFTFTISSLQPEDIATYYCHQYLSSWTFGGGTKLEIKRTVAAPSVFIFPPSDEQLKSGTASVVCLLNNFYPREAKVQWKVDNALQSGNSQESVTEQDSKDSTYSLSSTLTLSKADYEKHKVYACEVTHQGLSSPVTKSFNRGECGGGGSNYHLENEVARLKKL heavy: QVQLVQSGAEVKKPGSSVKVSCKASGYTFTSYWLHWVRQAPGQGLEWIGYINPRNDYTEYNQNFKDKATITADESTNTAYMELSSLRSEDTAFYFCARRDITTFYWGQGTTVTVSSARTKGPSVFPLAPSSKSTSGGTAALGCLVKDYFPEPVTVSWNSGALTSGVHTFPAVLQSSGLYSLSSVVTVPSSSLGTQTYICNVNHKPSNTKVDKKVEPKSCGGGGSNYHLENEVARLKKL | 4.6 | 3.6 | 10.4 | 42.2 | 47.4 | 44.9 | 0.0288 nM | 0.0555 nM | -3.84 | -0.28 | -4.59 | 0.02 | 6.77 | 21.7 | 24.3 | – | EC50 of cytotoxicity [1]: 0.0691 nM; cytotoxicity at 0.01 pM [2]: 1.34; cytotoxicity at 0.1 pM [2]: 0.18; cytotoxicity at 1 pM [2]: 1.38; cytotoxicity at 10 pM [2]: 4.1; cytotoxicity at 100 pM [2]: 28.2; cytotoxicity at 1000 pM [2]: 46.9; cytotoxicity at 10000 pM [2]: 44.2
anti-CD22 (clone hLL2) IgG LCCT switch (antibody) light: DIQLTQSPSSLSASVGDRVTMSCKSSQSVLYSANHKNYLAWYQQKPGKAPKLLIYWASTRESGVPSRFSGSGSGTDFTFTISSLQPEDIATYYCHQYLSSWTFGGGTKLEIKRTVAAPSVFIFPPSDEQLKSGTASVVCLLNNFYPREAKVQWKVDNALQSGNSQESVTEQDSKDSTYSLSSTLTLSKADYEKHKVYACEVTHQGLSSPVTKSFNRGECGGGGSNYHLENEVARLKKL heavy: QVQLVQSGAEVKKPGSSVKVSCKASGYTFTSYWLHWVRQAPGQGLEWIGYINPRNDYTEYNQNFKDKATITADESTNTAYMELSSLRSEDTAFYFCARRDITTFYWGQGTTVTVSSARTKGPSVFPLAPSSKSTSGGTAALGCLVKDYFPEPVTVSWNSGALTSGVHTFPAVLQSSGLYSLSSVVTVPSSSLGTQTYICNVNHKPSNTKVDKKVEPKSCDKTHTCPPCPAPPVAGPSVFLFPPKPKDTLMISRTPEVTCVVVDVSHEDPEVKFNWYVDGVEVHNAKTKPREEQYNSTYRVVSVLTVLHQDWLNGKEYKCKVSNKGLPSSIEKTISKAKGQPREPQVYTLPPSRDELTKNQVSLTCLVKGFYPSDIAVEWESNGQPENNYKTTPPVLDSDGSFFLYSKLTVDKSRWQQGNVFSCSVMHEALHNHYTQKSLSLSPGK | – | – | – | – | – | – | – | 0.0269 nM | -2.8 | -7.88 | -6.59 | 0.95 | 14.1 | 25.4 | 28.5 | 24.4 | –
anti-CD22 (clone hLL2) IgG CTBV switch (antibody) light: DIQLTQSPSSLSASVGDRVTMSCKSSQSVLYSANHKNYLAWYQQKPGKAPKLLIYWASTRESGVPSRFSGSGSGTDFTFTISSLQPEDIATYYCHQYLSSWTFGGGTKLEIKRTVAAPSVFIFPPSDEQLKSGTASVVCLLNNFYPREAKVQWKVDNALQSGNSQESVTEQDSKDSTYSLSSTLTLSKADYEKHKVYACEVTHQGLSSPVTKSFNRGECGGGGSNYHLENEVARLKKL heavy: QVQLVQSGAEVKKPGSSVKVSCKASGYTFTSYWLHWVRQAPGQGLEWIGYINPRNDYTEYNQNFKDKATITADESTNTAYMELSSLRSEDTAFYFCARRDITTFYWGQGTTVTVSSARTKGPSVFPLAPSSKSTSGGTAALGCLVKDYFPEPVTVSWNSGALTSGVHTFPAVLQSSGLYSLSSVVTVPSSSLGTQTYICNVNHKPSNTKVDKKVEPKSCDKTHTCPPCPAPPVAGPSVFLFPPKPKDTLMISRTPEVTCVVVDVSHEDPEVKFNWYVDGVEVHNAKTKPREEQYNSTYRVVSVLTVLHQDWLNGKEYKCKVSNKGLPSSIEKTISKAKGQPREPQVYTLPPSRDELTKNQVSLTCLVKGFYPSDIAVEWESNGQPENNYKTTPPVLDSDGSFFLYSKLTVDKSRWQQGNVFSCSVMHEALHNHYTQKSLSLSPGKGGGGSNYHLENEVARLKKL | – | – | – | – | – | – | – | 0.0347 nM | 4.45 | -3.82 | 5.34 | 7.92 | – | 28.6 | 38 | 29.8 | –
anti-CD22 (clone hLL2) Fab CTBV2 switch (2 GGGGS linker) (Fab) light: DIQLTQSPSSLSASVGDRVTMSCKSSQSVLYSANHKNYLAWYQQKPGKAPKLLIYWASTRESGVPSRFSGSGSGTDFTFTISSLQPEDIATYYCHQYLSSWTFGGGTKLEIKRTVAAPSVFIFPPSDEQLKSGTASVVCLLNNFYPREAKVQWKVDNALQSGNSQESVTEQDSKDSTYSLSSTLTLSKADYEKHKVYACEVTHQGLSSPVTKSFNRGECGGGGSGGGGSNYHLENEVARLKKL heavy: QVQLVQSGAEVKKPGSSVKVSCKASGYTFTSYWLHWVRQAPGQGLEWIGYINPRNDYTEYNQNFKDKATITADESTNTAYMELSSLRSEDTAFYFCARRDITTFYWGQGTTVTVSSARTKGPSVFPLAPSSKSTSGGTAALGCLVKDYFPEPVTVSWNSGALTSGVHTFPAVLQSSGLYSLSSVVTVPSSSLGTQTYICNVNHKPSNTKVDKKVEPKSCGGGGSGGGGSNYHLENEVARLKKL | 7.08 | 2.9 | 22.1 | 45.8 | 45.8 | 46 | 0.0126 nM | – | – | – | – | – | – | – | – | – | –
anti-CD22 (clone hLL2) IgG HCCT switch (antibody) light: DIQLTQSPSSLSASVGDRVTMSCKSSQSVLYSANHKNYLAWYQQKPGKAPKLLIYWASTRESGVPSRFSGSGSGTDFTFTISSLQPEDIATYYCHQYLSSWTFGGGTKLEIKRTVAAPSVFIFPPSDEQLKSGTASVVCLLNNFYPREAKVQWKVDNALQSGNSQESVTEQDSKDSTYSLSSTLTLSKADYEKHKVYACEVTHQGLSSPVTKSFNRGEC heavy: QVQLVQSGAEVKKPGSSVKVSCKASGYTFTSYWLHWVRQAPGQGLEWIGYINPRNDYTEYNQNFKDKATITADESTNTAYMELSSLRSEDTAFYFCARRDITTFYWGQGTTVTVSSARTKGPSVFPLAPSSKSTSGGTAALGCLVKDYFPEPVTVSWNSGALTSGVHTFPAVLQSSGLYSLSSVVTVPSSSLGTQTYICNVNHKPSNTKVDKKVEPKSCDKTHTCPPCPAPPVAGPSVFLFPPKPKDTLMISRTPEVTCVVVDVSHEDPEVKFNWYVDGVEVHNAKTKPREEQYNSTYRVVSVLTVLHQDWLNGKEYKCKVSNKGLPSSIEKTISKAKGQPREPQVYTLPPSRDELTKNQVSLTCLVKGFYPSDIAVEWESNGQPENNYKTTPPVLDSDGSFFLYSKLTVDKSRWQQGNVFSCSVMHEALHNHYTQKSLSLSPGKGGGGSNYHLENEVARLKKL | – | – | – | – | – | – | – | 0.0153 nM | 0.25 | -1.05 | -4.45 | 8.18 | 20.9 | – | 24.1 | 31.8 | –
anti-CD22 (clone hLL2) Fab CTBV3 switch (3 GGGGS linker) (Fab) light: DIQLTQSPSSLSASVGDRVTMSCKSSQSVLYSANHKNYLAWYQQKPGKAPKLLIYWASTRESGVPSRFSGSGSGTDFTFTISSLQPEDIATYYCHQYLSSWTFGGGTKLEIKRTVAAPSVFIFPPSDEQLKSGTASVVCLLNNFYPREAKVQWKVDNALQSGNSQESVTEQDSKDSTYSLSSTLTLSKADYEKHKVYACEVTHQGLSSPVTKSFNRGECGGGGSGGGGSGGGGSNYHLENEVARLKKL heavy: QVQLVQSGAEVKKPGSSVKVSCKASGYTFTSYWLHWVRQAPGQGLEWIGYINPRNDYTEYNQNFKDKATITADESTNTAYMELSSLRSEDTAFYFCARRDITTFYWGQGTTVTVSSARTKGPSVFPLAPSSKSTSGGTAALGCLVKDYFPEPVTVSWNSGALTSGVHTFPAVLQSSGLYSLSSVVTVPSSSLGTQTYICNVNHKPSNTKVDKKVEPKSCGGGGSGGGGSGGGGSNYHLENEVARLKKL | 2.54 | 7.9 | 17 | 51.3 | 45.3 | 41.5 | 0.0149 nM | – | – | – | – | – | – | – | – | – | –
anti-CD19 (FMC63) Fab LCNT switch (Fab, V domains shown, also called LCNT Fab) VH: EVKLQESGPGLVAPSQSLSVTCTVSGVSLPDYGVSWIRQPPRKGLEWLGVIWGSETTYYNSALKSRLTIIKDNSKSQVFLKMNSLQTDDTAIYYCAKHYYYGGSYAMDYWGQGTSVTVSS VL: DIQMTQTTSSLSASLGDRVTISCRASQDISKYLNWYQQKPDGTVKLLIYHTSRLHSGVPSRFSGSGSGTDYSLTISNLEQEDIATYFCQQGNTLPYTFGGGTKLEIKR | – | – | – | – | – | – | – | – | – | – | – | – | – | – | – | – | EC50 (read off the curve) [7]: ~2 nM
NYHLENEVARLKKL (not fully specified, also called PNE) [yeast transcription factor GCN4 minimal binding peptide NYHLENEVARLKKL] | – | – | – | – | – | – | – | – | – | – | – | – | – | – | – | – | binding result [8]: binds; binding result [9]: binds
